The record followed here is patent publication US20080138818A1.

The target of assay [1] is Type I IFN receptor (human) (UniProt P17181). Description: cell-based or functional assay.
The target of assay [2] is T1, Type II IFN (IFN γ) receptor (human) (UniProt P15260).
T1 sequence (looked up) 1: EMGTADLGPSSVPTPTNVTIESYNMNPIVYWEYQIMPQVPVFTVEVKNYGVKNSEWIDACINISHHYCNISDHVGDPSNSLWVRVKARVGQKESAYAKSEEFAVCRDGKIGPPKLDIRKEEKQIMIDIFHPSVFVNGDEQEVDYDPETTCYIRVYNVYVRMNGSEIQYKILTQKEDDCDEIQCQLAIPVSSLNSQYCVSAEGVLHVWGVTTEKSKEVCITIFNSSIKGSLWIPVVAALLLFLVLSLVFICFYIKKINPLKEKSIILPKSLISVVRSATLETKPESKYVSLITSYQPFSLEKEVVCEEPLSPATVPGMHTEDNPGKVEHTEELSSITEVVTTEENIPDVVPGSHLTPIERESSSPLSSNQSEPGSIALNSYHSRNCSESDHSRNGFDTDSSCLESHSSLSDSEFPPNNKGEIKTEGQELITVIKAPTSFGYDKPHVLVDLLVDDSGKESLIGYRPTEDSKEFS
T1 sequence (looked up) 2: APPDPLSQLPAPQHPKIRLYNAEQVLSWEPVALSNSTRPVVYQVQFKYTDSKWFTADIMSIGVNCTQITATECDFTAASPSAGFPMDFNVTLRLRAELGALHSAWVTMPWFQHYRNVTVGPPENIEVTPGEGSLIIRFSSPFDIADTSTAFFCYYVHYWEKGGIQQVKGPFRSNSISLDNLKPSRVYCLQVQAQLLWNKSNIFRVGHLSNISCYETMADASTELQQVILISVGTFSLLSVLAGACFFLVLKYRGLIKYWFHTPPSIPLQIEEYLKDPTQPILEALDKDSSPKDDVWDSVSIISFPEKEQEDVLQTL
Description: cell-based or functional assay.

Sequence of UniProt P17181 (P17181 28-557, chain 1 of 2): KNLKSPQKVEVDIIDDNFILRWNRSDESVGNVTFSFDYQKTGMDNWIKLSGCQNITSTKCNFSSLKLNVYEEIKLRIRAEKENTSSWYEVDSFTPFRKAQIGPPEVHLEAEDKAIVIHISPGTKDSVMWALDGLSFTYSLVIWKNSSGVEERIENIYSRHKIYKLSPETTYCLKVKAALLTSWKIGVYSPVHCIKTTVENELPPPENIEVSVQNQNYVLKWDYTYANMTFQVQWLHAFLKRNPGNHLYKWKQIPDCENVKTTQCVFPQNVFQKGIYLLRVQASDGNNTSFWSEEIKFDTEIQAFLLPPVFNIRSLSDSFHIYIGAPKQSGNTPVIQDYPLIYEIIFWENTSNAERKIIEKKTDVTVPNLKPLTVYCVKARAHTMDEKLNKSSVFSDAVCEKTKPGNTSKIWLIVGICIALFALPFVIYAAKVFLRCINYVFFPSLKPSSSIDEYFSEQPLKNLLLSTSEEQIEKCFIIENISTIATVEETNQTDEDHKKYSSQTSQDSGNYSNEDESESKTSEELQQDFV
Sequence of UniProt P17181 (P48551 27-515, chain 2 of 2, further chain): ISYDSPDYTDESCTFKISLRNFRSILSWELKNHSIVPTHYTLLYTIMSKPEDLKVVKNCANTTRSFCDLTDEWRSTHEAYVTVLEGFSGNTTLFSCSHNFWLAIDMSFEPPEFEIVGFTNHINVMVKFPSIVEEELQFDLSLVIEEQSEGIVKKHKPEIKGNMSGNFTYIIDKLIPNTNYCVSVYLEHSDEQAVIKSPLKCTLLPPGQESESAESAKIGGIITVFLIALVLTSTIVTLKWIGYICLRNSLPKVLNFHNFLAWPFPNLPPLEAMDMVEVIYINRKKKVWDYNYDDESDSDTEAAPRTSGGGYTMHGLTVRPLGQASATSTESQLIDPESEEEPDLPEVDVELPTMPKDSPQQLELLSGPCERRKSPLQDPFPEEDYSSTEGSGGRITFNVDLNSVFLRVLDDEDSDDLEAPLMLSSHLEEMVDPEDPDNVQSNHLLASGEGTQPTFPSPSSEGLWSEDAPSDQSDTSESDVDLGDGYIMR

In assay [1], human IFNα (ligand) showed an RLU (Relative Luciferase Units): Fold Increase, GAS-Luc reporter in U937 cells, IFNα 1.0 IU/ml of 1.5 fold and an RLU (Relative Luciferase Units): Fold Increase, GAS-Luc reporter in U937 cells, IFNα 100.0 IU/ml of 3 fold.

In assay [2], “human interferon gamma (IFNγ) (from UniProt P01579 24-166) (ligand)” gave an RLU (Relative Luciferase Units): Fold Increase, GAS-Luc reporter in U266R cells Clone 2 (UIG2), IFNγ 1.0 IU/ml of 1.5 fold; an RLU (Relative Luciferase Units): Fold Increase, GAS-Luc reporter in U266R cells Clone 2 (UIG2), IFNγ 100 0 IU/ml (so in the source) of 9 fold; an RLU (Relative Luciferase Units): Fold Increase, GAS-Luc reporter in U937 cells, IFNγ 10.0 IU/ml of 1.25 fold; an RLU (Relative Luciferase Units): Fold Increase, GAS-Luc reporter in U937 cells, IFNγ 100 0 IU/ml (so in the source) of 1.5 fold. In assay [2], the fold increase in RLU, IRF-Luc reporter in U937 cells Clone #2 (IRF-Luc2), IFNγ came to 1.1 fold.
